Experimental data from publication doi:10.1101/302828 (bioRxiv, 2018).

Molecular target: the molecule itself
Assay: SEC

B1: recombinant murine chromogranin B (CHGB) (natural protein, mouse, UniProt P16014 21-677, looked up)
chain: APVDNRDHNEEMVTRCIIEVLSNALSKSSVPTITPECRQVLKKSGKEVKGEEKGENQNSKFEVRLLRDPADASGTRWASSREDAGAPVEDSQGQTKVGNEKWTEGGGHSREGVDDQESLRPSNQQASKEAKIYHSEERVGKEREKEEGKIYPMGEHREDAGEEKKHIEDSGEKPNTFSNKRSEASAKKKDESVARADAHSMELEEKTHSREQSSQESGEETRRQEKPQELTDQDQSQEESQEGEEGEEGEEGEEGEEDSASEVTKRRPRHHHGRSGSNKSSYEGHPLSEERRPSPKESKEADVATVRLGEKRSHHLAHYRASEEEPEYGEESRSYRGLQYRGRGSEEDRAPRPRSEESQEREYKRNHPDSELESTANRHGEETEEERSYEGANGRQHRGRGREPGAHSALDTREEKRLLDEGHYPVRESPIDTAKRYPQSKWQEQEKNYLNYGEEGDQGRWWQQEEQLGPEESREEVRFPDRQYEPYPITEKRKRLGALFNPYFDPLQWKNSDFEKRGNPDDSFLEDEGEDRNGVTLTEKNSFPEYNYDWWERRPFSEDVNWGYEKRSFARAPQLDLKRQYDGVAELDQLLHYRKKADEFPDFYDSEEQMGPHQEANDEKARADQRVLTAEEKKELENLAAMDLELQKIAEKFSQRG
stoichiometry N: 2
